Measurements taken from article doi:10.1101/2023.01.23.525297.
Where two headings read alike, the source gives them in different places.

Tests used:
[1] = target: noumeavirus NMV_189 (noumeavirus)
[2] = target: noumeavirus NMV_189 (noumeavirus); assay: crystal structure
[3] = target: zamilon vitis Zav_19 (zamilon vitis virophage)
[4] = target: zamilon vitis Zav_19 (zamilon vitis virophage); assay: crystal structure

Substance | stoichiometry N [1] | stoichiometry N [2] | stoichiometry N [3] | stoichiometry N [4]
noumeavirus NMV_189 (natural protein) | 3 | 3 | – | –
zamilon vitis Zav_19 (natural protein) | – | – | 3 | 3
